# In the supplement of paper PMC7877785:
# ± gives the uncertainty stated by the source.
# Assay: self-splicing fitness, log relative to wild type (ln ratio); higher = more splicing; Tetrahymena group I intron in knt gene, E. coli kanamycin selection, DiMSum; sequences stand for … in CUCUCU…GGAGGGAAAAGUUAUCAGGCAUGCACCUGGUAGCUAGUCUUUAAACCAAUAGAUUGCAUCGGUUUAAAAGGCAAGACCGUCAAAUUGCGGGAAAGGGGUCAACAGCCGUUCAGUACCAAGUCUCAGGGGAAACUUUGAGAUGGCCUUGCAAAGGGUAUGGUAAUAAGCUGACGGACAUGGUCCUAACCACGCAGCCAAGUCCUAAGUCAACAGAUCUUCUGUUGAUAUGGAUGCAGUUCACAGACUAAAUGUCGGUCGGGGAAGAUGUAUUCUUCUCAUAAGAUAUAGUCGGACCUCUCCUUAAUGGGAGCUAGCGGAUGAAGUGAUGCAACACUGGAGCCGCUGGGAACUAAUUUGUAUGCGAAAGUAUAUUGAUUAGUUUUGGAGUACUCGUGGUCG
# How it was run: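 Library with all eight P1ex-region intron nucleotides randomised, intron inside the knt kanamycin-resistance gene on pET-22b(+), in E. coli BL21(DE3). Cells grew overnight at 37°C or 30°C on LB agar with or without 25 μg/mL kanamycin (plus 100 μg/mL carbenicillin, 50 μM IPTG, 0.2% rhamnose), in six replicate transformations. Pooled colonies were amplicon-sequenced on Illumina HiSeq 2500. DiMSum fitness is the error-weighted combination of wild-type-normalised replicate fold changes, kanamycin versus none.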
Sequence,self-splicing fitness (ln) (30 °C),self-splicing fitness (ln) (37 °C)
GCUGAGCAAUAUUACGGCCA,-2.02 ± 0.28,-1.9 ± 0.38
GCUGAGCAAUAUUACGGGCU,-1.89 ± 0.31,–
GCUGAGCAAUAUUACGGGGA,-2.81 ± 0.3,-2.03 ± 0.32
GCUGAGCAAUAUUACGGGGG,-2.59 ± 0.2,-1.8 ± 0.21
GCUGAGCAAUAUUACGGUAG,-3.27 ± 0.24,-3.11 ± 0.3
GCUGAGCAAUAUUACGUAAU,-3.77 ± 0.24,-1.29 ± 0.14
GCUGAGCAAUAUUACGUCGA,-1.34 ± 0.24,-1.72 ± 0.24
GCUGAGCAAUAUUACGUCUC,–,-1.16 ± 0.35
GCUGAGCAAUAUUACGUUGU,-3.56 ± 0.14,-2.83 ± 0.17
GCUUAGCAAUAUUACGAGUG,-0.38 ± 0.096,-0.545 ± 0.11
GCUUAGCAAUAUUACGAUGA,-0.547 ± 0.12,-0.556 ± 0.12
GCUUAGCAAUAUUACGCAGU,-2.45 ± 0.25,-3.16 ± 0.47
GCUUAGCAAUAUUACGCCCA,-1.96 ± 0.24,-0.0842 ± 0.23
GCUUAGCAAUAUUACGCCUG,-2.35 ± 0.14,-1.02 ± 0.13
GCUUAGCAAUAUUACGCGAA,-2.55 ± 0.11,-1.98 ± 0.11
GCUUAGCAAUAUUACGCGUA,-1.39 ± 0.16,-1.71 ± 0.17
GCUUAGCAAUAUUACGCUGA,-2.77 ± 0.17,-3.37 ± 0.26
GCUUAGCAAUAUUACGGCAG,-4.61 ± 0.46,-2.63 ± 0.34
GCUUAGCAAUAUUACGGCAU,-1.79 ± 0.17,-1.61 ± 0.2
GCUUAGCAAUAUUACGGCGA,-1.75 ± 0.14,-1.33 ± 0.16
GCUUAGCAAUAUUACGGGAU,-1.56 ± 0.074,-0.453 ± 0.09
GCUUAGCAAUAUUACGGGGG,-1.53 ± 0.11,-1.54 ± 0.15
GCUUAGCAAUAUUACGGUAA,-2.18 ± 0.14,-1.54 ± 0.13
GCUUAGCAAUAUUACGUCAC,–,-1.53 ± 0.5
GCUUAGCAAUAUUACGUCGU,-0.74 ± 0.097,0.231 ± 0.14

Sequence,self-splicing fitness (ln) (30 °C),self-splicing fitness (ln) (37 °C)
GCUUAGCAAUAUUACGUGUA,-1.03 ± 0.077,-0.175 ± 0.083
GGAAAGCAAUAUUACGAAGG,-3.22 ± 0.23,-2.5 ± 0.38
GGAAAGCAAUAUUACGAGAU,-2.44 ± 0.17,-2.17 ± 0.29
GGAAAGCAAUAUUACGAGUC,-0.868 ± 0.11,-1.48 ± 0.12
GGAAAGCAAUAUUACGAUCA,0.0514 ± 0.081,-0.282 ± 0.099
GGAAAGCAAUAUUACGCAGU,-2.78 ± 0.13,-1.47 ± 0.12
GGAAAGCAAUAUUACGCAUU,-2.5 ± 0.12,-2.55 ± 0.25
GGAAAGCAAUAUUACGCCAU,-1.76 ± 0.18,-0.946 ± 0.31
GGAAAGCAAUAUUACGCCUA,-1.28 ± 0.18,-0.669 ± 0.23
GGAAAGCAAUAUUACGCGAU,-2.98 ± 0.18,-1.02 ± 0.17
GGAAAGCAAUAUUACGCGGA,-1.96 ± 0.13,-0.353 ± 0.1
GGAAAGCAAUAUUACGCGGU,-3.32 ± 0.13,-3.21 ± 0.2
GGAAAGCAAUAUUACGCUCA,-0.428 ± 0.12,-0.303 ± 0.17
GGAAAGCAAUAUUACGCUUU,–,-2.56 ± 0.3
GGAAAGCAAUAUUACGGAAU,-2.55 ± 0.16,-1.1 ± 0.15
GGAAAGCAAUAUUACGGACG,-0.879 ± 0.087,0.281 ± 0.1
GGAAAGCAAUAUUACGGAGC,-1.43 ± 0.17,-1.49 ± 0.2
GGAAAGCAAUAUUACGGCGC,-0.392 ± 0.16,0.131 ± 0.21
GGAAAGCAAUAUUACGGCUA,-0.34 ± 0.2,-0.931 ± 0.18
GGAAAGCAAUAUUACGGGCG,-0.494 ± 0.079,-0.213 ± 0.11
GGAAAGCAAUAUUACGGUAU,-1.82 ± 0.11,-1.31 ± 0.13
GGAAAGCAAUAUUACGGUUA,-1.33 ± 0.11,-0.365 ± 0.099
GGAAAGCAAUAUUACGUACU,-1.25 ± 0.082,-0.834 ± 0.13
GGAAAGCAAUAUUACGUCAG,-3.08 ± 0.38,-2.25 ± 0.27
